According to patent US20200147199A1:

Legend:
Test in all cases: SPR
Human FcRn = target: Human FcRn
NHP FcγRIII = target: NHP FcγRIII
NHP FcγRIIb = target: NHP FcγRIIb
Human FcγRIIIaV158 = target: Human FcγRIIIaV158
Human FcγRIIaH131 = target: Human FcγRIIaH131
Human FcγRIIb = target: Human FcγRIIb
NHP FcγRIIa = target: NHP FcγRIIa

Row | Kd (NHP FcγRIII) [nM] | Kd (NHP FcγRIIb) [nM] | Kd (Human FcγRIIIaV158) [nM] | Kd (Human FcγRIIaH131) [nM] | Kd (Human FcγRIIb) [nM] | Kd (NHP FcγRIIa) [nM] | Substance | Kd (Human FcRn) [nM]
1 |  |  |  |  |  |  | GRLR | 22.4
2 | 424 | 2690 | 233 | 2090 | 6380 | 7970 | LS | 4.76
